From PMC5799168 (Scientific Reports, 2018)

Tested on: wild-type and mutant Ndi1
Assay: Kinetic parameters of the oxidoreductase activity of wild-type and mutant Ndi1 for ubiquinone-1
Type: biochemical, Saccharomyces cerevisiae
Conditions: for Km: apparent Km for ubiquinone-1 (2.4–60 µM); for Km / Vmax: NADH fixed at 100 µM; for Vmax, % of the wild-type activity: relative to wild-type Ndi1; for Vmax: ubiquinone-1 as substrate (2.4–60 µM)
Protocol: This unique structure appears to be related to the competitive nature of the inhibition of Ndi1 oxidoreductase activity by stigmatellin. It is therefore hypothesized that L444, I459, R460, and S461, which interact with stigmatellin at the STG-1a site, are also involved in the binding of the substrate ubiquinone (Fig. 5). This hypothesis was evaluated by examining the effects of mutations of the proximal L444 and I459 on the kinetics of the enzymatic reaction of Ndi1. The effect of the mutation of S484, which specifically interacts with stigmatellin at the STG-1b site, was examined as a control. Furthermore, the effects of mutations of W63, P92, A393, Q394, H397, L447, Y482, M485, and L487, which interact with the aromatic head group of stigmatellin at the STG-1a and STG-1b sites, were also examined. Moreover, to investigate the functional role of the STG-2 site in ubiquinone binding, a mutation was also introduced to R479.
NADH-ubiquinone oxidoreductase activity was measured as described previously. In brief, the reaction was started by adding 100 µM NADH to the enzyme mixture containing 10 ng/mL Ndi1, 50 mM sodium phosphate (pH 6.0) and 1 mM EDTA, which was pre-incubated with various concentrations of ubiquinone-1 for 1 min. The decrease in 340 nm absorbance was measured as an indication of the oxidation of NADH (ε = 6.22 mM^−1 cm^−1) with a Shimadzu UV2000 spectrophotometer (Kyoto, Japan). The enzymatic activity obtained with 100 µM NADH and 60 µM ubiquinone-1 in the absence of any inhibitors (100% activity) catalyzed the oxidation of 1,890 μmol NADH/min/mg Ndi1. The concentrations of inhibitors required to obtain the half-maximal inhibition (IC50) were estimated by non-linear regression dose-response curves. The inhibition mode of each inhibitor for ubiquinone-1 was determined by the intersection point in double-reciprocal plots (Fig. 2B–E). To objectively evaluate the inhibition mode, the data of the inhibition kinetics were fitted to the Eq. (1) of mixed model inhibition in the Prism6 software program (GraphPad Software, Inc., La Jolla, CA).1 V=Vmax[S]/[S](1+[I]/αKi)+Km(1+[I]/Ki) […]
To determine the kinetic parameters of wild-type and mutant enzymes for ubiquinone-1, the NADH oxidation rates were measured in a fixed concentration of NADH (100 µM) and different concentrations of ubiquinone-1 (2.4–60 µM). Apparent Km and Vmax values were obtained by fitting a data set of initial velocity versus substrate concentration to the Michaelis-Menten model equation in the Prism6 software program.
Site-directed mutagenesis. The amino acid replacements of Ndi1 were basically performed with PrimeSTAR mutagenesis basal kit (Takara, Japan) using pET16b(NDI1-m) (2) and a synthetic oligonucleotide primer set (Table S2). The mutagenesis of H397 was performed with a QuikChange II XL site-directed mutagenesis kit (Stratagene, CA). Each mutation was confirmed through DNA sequencing (DNA sequencing service, Eurofins). The purification procedure of wild-type and mutant enzymes, used for the determination of the kinetic parameters (Table 2), was basically the same as the above procedure, without the replacement of the detergent from Triton X -100 with DDM. After washing the enzyme with buffer A containing 0.1% Triton X-100 and 15 mM histidine, 0.02% Triton X-100 was added to all buffer as a substitute for DDM. With the exception of 5 mutants containing L444D, I459A, […]
yield of the wild-type enzyme. […]

B1: M485A: recombinant Ndi1 mutant M485A (protein, UniProt P32340 27-513, looked up, variant M485A)
Rotenone-insensitive …: STGVENSGAGPTSFKTMKVIDPQHSDKPNVLILGSGWGAISFLKHIDTKKYNVSIISPRSYFLFTPLLPSAPVGTVDEKSIIEPIVNFALKKKGNVTYYEAEATSINPDRNTVTIKSLSAVSQLYQPENHLGLHQAEPAEIKYDYLISAVGAEPNTFGIPGVTDYGHFLKEIPNSLEIRRTFAANLEKANLLPKGDPERRRLLSIVVVGGGPTGVEAAGELQDYVHQDLRKFLPALAEEVQIHLVEALPIVLNMFEKKLSSYAQSHLENTSIKVHLRTAVAKVEEKQLLAKTKHEDGKITEETIPYGTLIWATGNKARPVITDLFKKIPEQNSSKRGLAVNDFLQVKGSNNIFAIGDNAFAGLPPTAQVAHQEAEYLAKNFDKMAQIPNFQKNLSSRKDKIDLLFEENNFKPFKYNDLGALAYLGSERAIATIRSGKRTFYTGGGLMTFYLWRILYLSAILSARSRLKVFFDWIKLAFFKRDFFKGL
In the case of B1, the Km is reported as 18.6 ± 1.1 µM, the “Vmax, % of the wild-type activity” value is reported as 28% and the Vmax is reported as 292 ± 9.9 µmol/min/mg.

B2: Q394A: recombinant Ndi1 mutant Q394A (protein, UniProt P32340 27-513, looked up, variant Q394A)
Rotenone-insensitive …: STGVENSGAGPTSFKTMKVIDPQHSDKPNVLILGSGWGAISFLKHIDTKKYNVSIISPRSYFLFTPLLPSAPVGTVDEKSIIEPIVNFALKKKGNVTYYEAEATSINPDRNTVTIKSLSAVSQLYQPENHLGLHQAEPAEIKYDYLISAVGAEPNTFGIPGVTDYGHFLKEIPNSLEIRRTFAANLEKANLLPKGDPERRRLLSIVVVGGGPTGVEAAGELQDYVHQDLRKFLPALAEEVQIHLVEALPIVLNMFEKKLSSYAQSHLENTSIKVHLRTAVAKVEEKQLLAKTKHEDGKITEETIPYGTLIWATGNKARPVITDLFKKIPEQNSSKRGLAVNDFLQVKGSNNIFAIGDNAFAGLPPTAAVAHQEAEYLAKNFDKMAQIPNFQKNLSSRKDKIDLLFEENNFKPFKYNDLGALAYLGSERAIATIRSGKRTFYTGGGLMTFYLWRILYLSMILSARSRLKVFFDWIKLAFFKRDFFKGL
In the case of B2, the Km is reported as 24.5 ± 1.7 µM, the “Vmax, % of the wild-type activity” value is reported as 37% and the Vmax is reported as 391 ± 3.3 µmol/min/mg.

B3: R479A: recombinant Ndi1 mutant R479A (protein, UniProt P32340 27-513, looked up, variant R479A)
Rotenone-insensitive …: STGVENSGAGPTSFKTMKVIDPQHSDKPNVLILGSGWGAISFLKHIDTKKYNVSIISPRSYFLFTPLLPSAPVGTVDEKSIIEPIVNFALKKKGNVTYYEAEATSINPDRNTVTIKSLSAVSQLYQPENHLGLHQAEPAEIKYDYLISAVGAEPNTFGIPGVTDYGHFLKEIPNSLEIRRTFAANLEKANLLPKGDPERRRLLSIVVVGGGPTGVEAAGELQDYVHQDLRKFLPALAEEVQIHLVEALPIVLNMFEKKLSSYAQSHLENTSIKVHLRTAVAKVEEKQLLAKTKHEDGKITEETIPYGTLIWATGNKARPVITDLFKKIPEQNSSKRGLAVNDFLQVKGSNNIFAIGDNAFAGLPPTAQVAHQEAEYLAKNFDKMAQIPNFQKNLSSRKDKIDLLFEENNFKPFKYNDLGALAYLGSERAIATIRSGKRTFYTGGGLMTFYLWAILYLSMILSARSRLKVFFDWIKLAFFKRDFFKGL
B3 was tested, and the Km was 11.5 ± 0.58 µM, the “Vmax, % of the wild-type activity” value was 30% and the Vmax was 316 ± 6.1 µmol/min/mg.

B4: R479K: recombinant Ndi1 mutant R479K (protein, UniProt P32340 27-513, looked up, variant R479K)
Rotenone-insensitive …: STGVENSGAGPTSFKTMKVIDPQHSDKPNVLILGSGWGAISFLKHIDTKKYNVSIISPRSYFLFTPLLPSAPVGTVDEKSIIEPIVNFALKKKGNVTYYEAEATSINPDRNTVTIKSLSAVSQLYQPENHLGLHQAEPAEIKYDYLISAVGAEPNTFGIPGVTDYGHFLKEIPNSLEIRRTFAANLEKANLLPKGDPERRRLLSIVVVGGGPTGVEAAGELQDYVHQDLRKFLPALAEEVQIHLVEALPIVLNMFEKKLSSYAQSHLENTSIKVHLRTAVAKVEEKQLLAKTKHEDGKITEETIPYGTLIWATGNKARPVITDLFKKIPEQNSSKRGLAVNDFLQVKGSNNIFAIGDNAFAGLPPTAQVAHQEAEYLAKNFDKMAQIPNFQKNLSSRKDKIDLLFEENNFKPFKYNDLGALAYLGSERAIATIRSGKRTFYTGGGLMTFYLWKILYLSMILSARSRLKVFFDWIKLAFFKRDFFKGL
In the case of B4, the Km is reported as 9.37 ± 0.48 µM, the “Vmax, % of the wild-type activity” value is reported as 29% and the Vmax is reported as 305 ± 5.8 µmol/min/mg.

B5: R479H: recombinant Ndi1 mutant R479H (protein, UniProt P32340 27-513, looked up, variant R479H)
Rotenone-insensitive …: STGVENSGAGPTSFKTMKVIDPQHSDKPNVLILGSGWGAISFLKHIDTKKYNVSIISPRSYFLFTPLLPSAPVGTVDEKSIIEPIVNFALKKKGNVTYYEAEATSINPDRNTVTIKSLSAVSQLYQPENHLGLHQAEPAEIKYDYLISAVGAEPNTFGIPGVTDYGHFLKEIPNSLEIRRTFAANLEKANLLPKGDPERRRLLSIVVVGGGPTGVEAAGELQDYVHQDLRKFLPALAEEVQIHLVEALPIVLNMFEKKLSSYAQSHLENTSIKVHLRTAVAKVEEKQLLAKTKHEDGKITEETIPYGTLIWATGNKARPVITDLFKKIPEQNSSKRGLAVNDFLQVKGSNNIFAIGDNAFAGLPPTAQVAHQEAEYLAKNFDKMAQIPNFQKNLSSRKDKIDLLFEENNFKPFKYNDLGALAYLGSERAIATIRSGKRTFYTGGGLMTFYLWHILYLSMILSARSRLKVFFDWIKLAFFKRDFFKGL
B5 was tested, and the Km was 23.5 ± 1.4 µM, the “Vmax, % of the wild-type activity” value was 0.1% and the Vmax was 1.06 ± 0.035 µmol/min/mg.

B6: Y482F: recombinant Ndi1 mutant Y482F (protein, UniProt P32340 27-513, looked up, variant Y482F)
Rotenone-insensitive …: STGVENSGAGPTSFKTMKVIDPQHSDKPNVLILGSGWGAISFLKHIDTKKYNVSIISPRSYFLFTPLLPSAPVGTVDEKSIIEPIVNFALKKKGNVTYYEAEATSINPDRNTVTIKSLSAVSQLYQPENHLGLHQAEPAEIKYDYLISAVGAEPNTFGIPGVTDYGHFLKEIPNSLEIRRTFAANLEKANLLPKGDPERRRLLSIVVVGGGPTGVEAAGELQDYVHQDLRKFLPALAEEVQIHLVEALPIVLNMFEKKLSSYAQSHLENTSIKVHLRTAVAKVEEKQLLAKTKHEDGKITEETIPYGTLIWATGNKARPVITDLFKKIPEQNSSKRGLAVNDFLQVKGSNNIFAIGDNAFAGLPPTAQVAHQEAEYLAKNFDKMAQIPNFQKNLSSRKDKIDLLFEENNFKPFKYNDLGALAYLGSERAIATIRSGKRTFYTGGGLMTFYLWRILFLSMILSARSRLKVFFDWIKLAFFKRDFFKGL
With B6 the Km was 23.3 ± 2 µM and the Vmax was 1090 ± 45 µmol/min/mg.

B7: S484F: recombinant Ndi1 mutant S484F (protein, UniProt P32340 27-513, looked up, variant S484F)
Rotenone-insensitive …: STGVENSGAGPTSFKTMKVIDPQHSDKPNVLILGSGWGAISFLKHIDTKKYNVSIISPRSYFLFTPLLPSAPVGTVDEKSIIEPIVNFALKKKGNVTYYEAEATSINPDRNTVTIKSLSAVSQLYQPENHLGLHQAEPAEIKYDYLISAVGAEPNTFGIPGVTDYGHFLKEIPNSLEIRRTFAANLEKANLLPKGDPERRRLLSIVVVGGGPTGVEAAGELQDYVHQDLRKFLPALAEEVQIHLVEALPIVLNMFEKKLSSYAQSHLENTSIKVHLRTAVAKVEEKQLLAKTKHEDGKITEETIPYGTLIWATGNKARPVITDLFKKIPEQNSSKRGLAVNDFLQVKGSNNIFAIGDNAFAGLPPTAQVAHQEAEYLAKNFDKMAQIPNFQKNLSSRKDKIDLLFEENNFKPFKYNDLGALAYLGSERAIATIRSGKRTFYTGGGLMTFYLWRILYLFMILSARSRLKVFFDWIKLAFFKRDFFKGL
For B7, the Km was 24.5 ± 3.9 µM and the Vmax was 1160 ± 120 µmol/min/mg.

B8: S484I: recombinant Ndi1 mutant S484I (protein, UniProt P32340 27-513, looked up, variant S484I)
Rotenone-insensitive …: STGVENSGAGPTSFKTMKVIDPQHSDKPNVLILGSGWGAISFLKHIDTKKYNVSIISPRSYFLFTPLLPSAPVGTVDEKSIIEPIVNFALKKKGNVTYYEAEATSINPDRNTVTIKSLSAVSQLYQPENHLGLHQAEPAEIKYDYLISAVGAEPNTFGIPGVTDYGHFLKEIPNSLEIRRTFAANLEKANLLPKGDPERRRLLSIVVVGGGPTGVEAAGELQDYVHQDLRKFLPALAEEVQIHLVEALPIVLNMFEKKLSSYAQSHLENTSIKVHLRTAVAKVEEKQLLAKTKHEDGKITEETIPYGTLIWATGNKARPVITDLFKKIPEQNSSKRGLAVNDFLQVKGSNNIFAIGDNAFAGLPPTAQVAHQEAEYLAKNFDKMAQIPNFQKNLSSRKDKIDLLFEENNFKPFKYNDLGALAYLGSERAIATIRSGKRTFYTGGGLMTFYLWRILYLIMILSARSRLKVFFDWIKLAFFKRDFFKGL
With B8 the Km was 25 ± 1.7 µM and the Vmax was 1010 ± 33 µmol/min/mg.
